Measured values reported in patent US20190248902A1 (published 2019).
Substitutions are numbered along the chain they refer to.

T1: Mouse ASGR-1 (mouse, UniProt P34927 1-284)
T1 construct: Expressed on HEK 293 cells or as membrane prep on beads; cDNA GenBank BC022106.1; also called muASGR-1; mASGR-1
T1 sequence: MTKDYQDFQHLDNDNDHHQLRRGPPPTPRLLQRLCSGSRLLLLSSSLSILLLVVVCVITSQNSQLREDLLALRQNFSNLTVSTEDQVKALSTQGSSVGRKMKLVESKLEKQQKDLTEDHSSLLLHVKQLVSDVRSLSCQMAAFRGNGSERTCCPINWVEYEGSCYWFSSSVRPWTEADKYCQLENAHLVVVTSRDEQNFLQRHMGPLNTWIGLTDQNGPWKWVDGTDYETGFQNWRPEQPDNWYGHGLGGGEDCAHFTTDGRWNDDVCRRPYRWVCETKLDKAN

T2: Dog ASGR-1 (dog)
T2 construct: Expressed on HEK 293 cells or as membrane prep on beads; cDNA GenBank XM_546579
T2 chain: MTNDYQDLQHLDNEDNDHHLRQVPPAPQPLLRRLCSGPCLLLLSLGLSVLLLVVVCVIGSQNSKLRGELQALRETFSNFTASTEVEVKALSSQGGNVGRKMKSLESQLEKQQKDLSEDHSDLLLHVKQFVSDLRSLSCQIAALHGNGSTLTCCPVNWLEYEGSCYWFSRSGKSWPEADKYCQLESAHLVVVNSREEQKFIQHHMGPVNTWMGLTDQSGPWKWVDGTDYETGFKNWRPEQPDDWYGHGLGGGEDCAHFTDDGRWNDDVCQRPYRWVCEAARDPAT

T3: Rat ASGR-1 (rat, UniProt P02706 1-284)
T3 construct: Expressed on HEK 293 cells or as membrane prep on beads; cDNA GenBank NM_012503
T3 sequence: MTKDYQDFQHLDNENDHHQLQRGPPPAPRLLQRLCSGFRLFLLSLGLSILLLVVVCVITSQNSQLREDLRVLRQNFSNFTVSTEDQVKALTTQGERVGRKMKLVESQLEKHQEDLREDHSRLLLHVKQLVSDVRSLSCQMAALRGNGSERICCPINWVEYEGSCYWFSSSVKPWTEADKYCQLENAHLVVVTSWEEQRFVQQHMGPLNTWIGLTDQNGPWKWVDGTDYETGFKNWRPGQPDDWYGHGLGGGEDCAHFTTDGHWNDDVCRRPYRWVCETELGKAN

B1: 198D2 (antibody, V domains shown)
VH: QVQLVESGGGVVQPGRSLRLSCAASGFTFRSYGMHWVRQAPGKGLEWVAVIIYDGSYKYYADSVKGRFTISRDNSKNTLYLQMNSLRAEDTAVYYCARTYSGGMDVWGQGTTVTVSS
VL: QSVLTQPPSVSAAPGQKVTISCSGSSSNIGSNYVSWYQQLPGTAPKVLIYDNNKRPSGIPDRFSGSKSGTSATLGITGLQTGDEADYYCGTWDSRLNVGVFGGGTKLTVL
notes: Tested as hybridoma supernatant at normalized concentration
B2: 25A4 (antibody, V domains shown)
VH: QVLLVQSGAEVKRPGASVKVSCKASGYTFTNYDINWVRQATGQGLEWMGWMYPNSGNTGYAQKFQGRVTMTRNTSISTAYMELSSLRSEDTAVYYCASSSGWYYFDYWGQGTLVTVSS
VL: DIVMTQFPDSLAVSLGERATIKCKSSQSVLYSSHNNNYLAWYQQKPGQPPKLLLYWASTRESGVPDRFSGSGSGTEFTLTISSLEAEDVAVYYCQQYYSTPPTFGQGTKVEIK
notes: as for B1
B3: 48B12 (antibody, V domains shown)
VH: EVQLLESGGGLVQPGGSLRLSCAASGFTFSSYAMNWVRQAPGKGLEWVSAISGRGGNTFYADSVKGRFTISRDNSKNTLYLQMNSLRAEDTAVYYCAKRETYNWNYEGFDYWGQGTLVTVSS
VL: SYELTQPPSVSVSPGQTARITCSGDALPKKYAYWYQQKSGQAPVLVIYEDSKRPSGIPERFSGSSSGTMATLTISGAQVEDEADYYCNSTDSSGNHVVFGGGTKLTVL
notes: as for B1
B4: 26C4 (antibody, V domains shown)
VH: B2 VH with L3Q, R13K, T41S, Y52N, K63R, S77N
VL: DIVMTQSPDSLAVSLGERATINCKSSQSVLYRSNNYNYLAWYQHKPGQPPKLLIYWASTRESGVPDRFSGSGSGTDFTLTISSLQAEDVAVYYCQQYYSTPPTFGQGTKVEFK
notes: as for B1
B5: 29H8 (antibody, V domains shown)
VH: B2 VH with L3Q, K12Q, R13K, Y52N, K63R, T78A
VL: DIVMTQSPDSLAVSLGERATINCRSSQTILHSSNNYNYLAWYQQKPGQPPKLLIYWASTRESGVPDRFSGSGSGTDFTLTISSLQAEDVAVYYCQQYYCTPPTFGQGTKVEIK
notes: as for B1
B6: 4A2 (antibody, V domains shown)
VH: B2 VH with L3Q, A9T, R13K, Y52H, M70L
VL: DIVMTQSPDSLAVSLGERATINCKSSQSILHSSNNNNYLAWFQQKPGQPPKLLLYWASTRESGVPDRFSGSGSGTDFTLTISSLQPEDVAVYYCQQYYNTPVTFGPGTKVGIK
notes: as for B1
B7: 56E5 (antibody, V domains shown)
VH: QVQLVQSGAEVKKPGASVKVSCQASGYTFTGYHMHWVRQAPGQGLEWMGWINPNNNATNYAQKFQGRVTMTRDTSISTAYMELRRLRSDDTAVYHCARDGTSSFDYWGQGTLVTVSS
VL: DIQMTQSPSSVSASVGDRVTITCRASQGIRKWLAWYQQKPGKAPKLLIYAASSLQSGVPSRFSGSGSGTDFTLTISSLQPEDFATYYCQQANSFPFTFGPGTKVDIK
notes: as for B1
B8: 4H6 (antibody, V domains shown)
VH: QVQLVQSGAEVKKPGASVKVSCKASGYTFTDYYLHWVRQAPGQGLEWMGWIHPNSGGTNYAQKFQGRVTMTRDTSISTAYMGLSSLRSDDTAVYYCARDGTSSFDYWGQGTLVTVSS
VL: B7 VL with R30S, K31R, A50G, T85I
notes: as for B1
B9: 12D2 (antibody, V domains shown)
VH: EVQLVESGGGLVKPGGSLRLSCAASGFTFSSYSMNWVRQAPGKGLEWVSSISSSSSYIYYADSVKGRFTISRDNAKNSLYLQMNSLRAEDTAVYYCARLGDYWGQGTLVAVSS
VL: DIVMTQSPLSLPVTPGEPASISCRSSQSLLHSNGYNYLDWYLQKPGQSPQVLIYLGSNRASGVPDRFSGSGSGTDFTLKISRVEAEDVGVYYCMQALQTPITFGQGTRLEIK
notes: as for B1
B10: 184E7 (antibody, V domains shown)
VH: QVQLVQSGAEVKTPGASVKVSCRASGYTFTSYNMHWVRQVPGQGLEWMGWINPNNGGSNYTQKFQGRVTMTRDTSISTAYMELSRLRSDDTAVYYCARKFGDWGQGTLVTVSS
VL: DIQMTQSPSSRSASIGERVTITCRASQGISNYLAWIQQKPGTAPKSLIYAASSLQSGVSSRFSGSGFGTDFTITISSVQREDFATYYCQQYNGYPFTFGHGTKVDIK
notes: as for B1
B11: 4B1 (antibody, V domains shown)
VH: QVQLQESGPGLVKPSETLSLTCSVSGDSISSYSWSWIRQPAGKGLEWIGRIYTSGSTNYIPSLKSRITMSVDTSKKQFSLKLSSVTAADTAVYYCARDLKSSGCLFFDYWGQGTLVTVSS
VL: DIQMTQSPSSLSASVGDRVTITCRASHTIRTYLNWYQQKPGKAPKLLIYAASSLQSGVPSRINGSGSGTDFTLTITNLQPEDFATYYCQQSYNISFTFGPGTKVDIK
notes: as for B1
B12: 72G9 (antibody, V domains shown)
VH: EVQLVESGGGLVKPGGSLRLSCAASGFTFSSYSMNWVRQAPGKGLEWVSSISGSSSYIYYADSVKGRFTISRDNAKNSLYLQMNSLRAEDTAVYFCARGGSRGFDPWGQGTLVTVSS
VL: B7 VL with V11L, G28S, R30T, K31S, W32Y, A34N, A50T, A91S, N92H
notes: as for B1

Target: T1, Mouse ASGR-1
Experiment: FACS on transfected HEK 293 cells or membrane preps on beads; binding = signal at least 2x irrelevant IgG
Procedure: (§1) Human ASGR-1-specific, ligand competing antibody samples were tested for binding to ASGR-1 from other species (cynomologus monkey ASGR-1, mouse ASGR-1, rat ASGR-1, dog ASGR-1, and pig ASGR-1) as well as to human ASGR-2 in FACS binding assays at normalized antibody concentrations. For cell-based assays, HEK 293 cells expressing the appropriate antigen of interest were mixed with antibody sample or controls, incubated for 1 hour at 4° C., and then washed twice. Cells with bound antibody were then incubated with Alexa Fluor® 647 IgG Fc fragment-specific detection antibody and 7-AAD viability stain for 15 minutes at 4° C., washed once and resuspended in FACS buffer. Samples were analyzed using a BD Accuri™ Flow Cytometer and an Intellicyt HyperCyt Autosampler. As a negative control, supernatants and controls were also screened against HEK 293 cells transfected with empty parental vector. […] For membrane-prep binding assays, ASGR-1 species specific membrane preps were used to coat LumAvidin® microspheres (beads) and tested for binding to selected hybridoma supernatants or controls. Briefly, ASGR-1 species specific membrane preps were incubated with streptavidin-coated LumAvidin® beads for 45 minutes in the dark at room temperature and washed twice. Beads were resuspeneded in FACS buffer containing Stabilguard®. Antigen-bound beads were then incubated with normalized antibody sample for 1 hour in the dark at room temperature, washed twice, incubated with Alexa Fluor® 488 IgG Fc fragment-specific detection antibody for 15 minutes in the dark at room temperature, washed once and finally resuspended in FACS buffer. Samples were analyzed using an Intellicyt iQue™ Screener Platform. FACS buffer supplemented with 1 mM Calcium Chloride was used in all steps. As a negative control, supernatants and controls were also screened against a non-ASGR-1 antigen membrane prep coated on the LumAvidin® beads.

Binder	binding result
B1	no binding
B2	no binding
B3	no binding
B4	no binding
B5	no binding
B6	no binding
B7	no binding

Target: T2, Dog ASGR-1
Experiment: as above
Procedure: as §1

Binder	binding result
B1	no binding
B2	no binding
B3	no binding
B4	no binding
B5	no binding
B6	no binding
B8	no binding
B7	no binding

Target: T3, Rat ASGR-1
Experiment: as above
Procedure: as §1

Binder	binding result
B3	no binding
B7	no binding

Target: T1, Mouse ASGR-1
Experiment: FACS on transfected HEK 293 cells or membrane preps on beads; Y = signal at least 2x irrelevant IgG
In short: (§2)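 Antibodies at normalized concentrations bound 1 h at 4° C to HEK 293 cells expressing each antigen, then Alexa Fluor 647 anti-Fc plus 7-AAD 15 min at 4° C, flow cytometry; empty-vector cells as negative. Alternatively, species ASGR-1 membrane preps on streptavidin beads, antibody 1 h RT, Alexa Fluor 488 anti-Fc; FACS buffer with 1 mM CaCl2 throughout.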

Binder	binding result
B9	binds
B10	binds
B11	binds
B8	binds
B12	binds

Target: T2, Dog ASGR-1
Experiment: as above
In short: as §2

Binder	binding result
B9	binds
B10	binds
B11	binds
B12	binds

Target: T3, Rat ASGR-1
Experiment: as above
In short: as §2

Binder	binding result
B1	binds
B9	binds
B2	binds
B4	binds
B5	binds
B10	binds
B6	binds
B11	binds
B8	binds
B12	binds
